Experimental data as given in patent publication US20130039922A1 (YEDA RESEARCH AND DEVELOPMENT, published 2013).

T1: Human pro-MMP-2 (human, UniProt P08253 30-660)
T1 construct: Zymogen with pro-domain; also called MMP-2 zymogen
T1 sequence (looked up): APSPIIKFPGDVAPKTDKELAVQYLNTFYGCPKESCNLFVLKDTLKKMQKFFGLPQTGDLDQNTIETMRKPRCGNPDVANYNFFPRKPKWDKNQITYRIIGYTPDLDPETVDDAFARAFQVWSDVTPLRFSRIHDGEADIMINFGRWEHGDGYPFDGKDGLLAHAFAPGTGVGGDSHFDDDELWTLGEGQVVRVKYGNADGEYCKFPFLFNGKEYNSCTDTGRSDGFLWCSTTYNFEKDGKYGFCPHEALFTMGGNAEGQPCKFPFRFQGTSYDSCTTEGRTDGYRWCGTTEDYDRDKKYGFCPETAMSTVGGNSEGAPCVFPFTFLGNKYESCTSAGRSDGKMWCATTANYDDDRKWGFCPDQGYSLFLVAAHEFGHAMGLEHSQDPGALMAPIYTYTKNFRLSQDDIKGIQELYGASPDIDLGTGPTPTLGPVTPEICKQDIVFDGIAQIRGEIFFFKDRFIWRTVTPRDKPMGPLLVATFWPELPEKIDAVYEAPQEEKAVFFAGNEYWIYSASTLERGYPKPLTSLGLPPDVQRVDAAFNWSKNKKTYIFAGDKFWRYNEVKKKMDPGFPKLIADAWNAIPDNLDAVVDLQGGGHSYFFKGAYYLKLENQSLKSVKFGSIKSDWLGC

T2: mouse MMP-9 catalytic domain (mouse, UniProt P41245 107-215; P41245 391-443, biotinylated (site not stated))
T2 construct: range 107-215;range 391-443; also called Biotinylated mouse catalytic MMP-9; not shown: N-terminal His tag from the pET3a construct
T2 sequence (looked up): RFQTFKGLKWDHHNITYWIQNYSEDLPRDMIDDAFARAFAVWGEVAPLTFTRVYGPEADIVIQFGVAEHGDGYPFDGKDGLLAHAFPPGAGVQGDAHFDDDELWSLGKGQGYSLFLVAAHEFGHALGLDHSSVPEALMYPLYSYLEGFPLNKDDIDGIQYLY


What was measured:
[1] = molecular target: MMP-2 (as used in the enzymatic kinetic assay); experiment: cell-based or functional assay
[2] = molecular target: T3, active MMP-9 (as used in the enzymatic kinetic assay and the XAS studies); experiment: cell-based or functional assay
[3] = molecular target: T3, active MMP-9 (as used in the enzymatic …); experiment: cell-based or functional assay; remark: listed apart in the source
[4] = molecular target: T4, native bovine serum albumin (bovine, UniProt P02769 25-607); experiment: ELISA screen of hybridoma supernatants on plate-absorbed antigen
T4 construct: Unconjugated carrier protein used as the counter-screen in the hybridoma ELISA; also called native BSA; BSA
Method: Preparation of Anti-MMP Metallobodies Using Zn-Tripod-KLH as an Immunogen: Female BALB/c mice were immunized on day 1 with complete Freund adjuvant and 50 μg of Zinc-Tripod-KLH and boosted every two weeks with incomplete Freund adjuvant by emulsifying and intraperitoneal injection. Spleen cells from the immunized mice were fused with NSO murine myeloma cells and cultured in HAT (hypoxantine/aminopterin/thymidine) selection medium. The culture supernatants of the hybridoma were screened using an ELISA, employing pairs of wells in microtiter plates on which were absorbed MMP-9 catalytic domain and Zinc-Tripod-BSA as antigens (0.5 μg of MMP-9 or Zinc-Tripod-BSA conjugate per well). After incubation with 100 μl of the hybridoma supernatants, and with intervening washes with Tris-buffered saline, pH 7.5, containing 0.05% Tween 20 (TBS-Tween), the wells were incubated with a peroxidase-conjugated goat anti-mouse IgG, followed by a substrate solution containing 2′-azino-bis(3-ethylbenzthiazoline-6-sulfonic acid) diammonium salt. Hybridoma cells, corresponding to the supernatants that were positive on both MMP-9 and Zinc-Tripod—BSA and negative on native BSA, were then cloned by limited dilution. After repeated screenings, four clones showing the most distinctive recognition of both antigens were obtained and clone SDS3 was chosen for further characterization.

[5] = molecular target: T5, MMP-9 catalytic fibronectin fragment (human or mouse (not told which)); experiment: SPR (BIAcore 3000), biotin-labeled MMP-9 on SA chip, antibody in flow
T5 construct: domain: catalytic fibronectin fragment; Immobilized on a streptavidin (SA) sensor chip for SPR; also called Biotinylated human or mouse MMP-9 catalytic fibronectin fragment; Biotin-labeled MMP-9
Description: (§1) FIGS. 13A-B are graphs illustrating results of SPR analysis of SDS3/SDS4 binding to MMP-9. Biotinylated human or mouse MMP-9 catalytic fibronectin fragment was immobilized on streptavidin (SA) chip. Control-corrected sensorgrams corresponding to the interaction of SDS3(FIG. 13A) and SDS4 (FIG. 13B) with biosensor surface-immobilized MMP-9 are shown. Antibody concentrations are represented by different colors, with specific values indicated. The data were collected in duplicate, and representative SPR sensorgrams in the ligand concentration series are shown. The ka (1/Ms) and kd (1/s) values were determined by SPR analysis, and KD (M) was calculated from ka and kd (KD=kd/ka).RU,response units.
(§2) The affinity between SDS3/SDS4 and human and mouse MMP-9 catalytic fibronectin fragment was measured with a BIAcore 3000 instrument (BIACORE). Biotin-labeled MMP-9 was immobilized on a sensor chips SA by the biotin-streptavidin coupling method, according to the manufacturer's instructions. All measurements were carried out at 25° C. and with a flow rate of 20 μl/min for both the association and dissociation phases in TBS buffer (50 mM Tris, 100 mM NaCl, 5 mM CaCl₂, pH 7.5). The interaction was monitored as the change in the SPR response. The association and dissociation rate constants, kₐ and kd, were determined by analysis of the appropriate regions of the sensogram using the BIAevaluation 3.2 software package (Pharmacia). The apparent equilibrium dissociation constant KD was determined from the ratio of the two rate constants (kd/kₐ).

[6] = molecular target: MMP-2 (as used in the enzymatic kinetic assay); experiment: enzyme kinetics, fluorogenic peptide hydrolysis, fit to competitive inhibition
Method: (§3) Similarly the enzymatic activity of TACE was measured by monitoring the degradation of fluorogenic peptide QF-45 (Mca-[…]dinitrophenyl)-NH2) (SEQ ID NO: 2). A range of different mAb concentrations (0.4-30 μM) were pre-incubated with 2 nM of active enzyme in 50 mM Tris buffer (pH 7.5 37° C.), 200 mM NaCl, 5 mM CaCl₂, and 0.05% Brij 35 for 40 minutes at 37° C. The enzymatic reaction was initiated by addition of 10 μM of the fluorogenic peptide. Fluorescence (as a measure of substrate degradation) was immediately recorded continuously for 30-50 minutes. Initial reaction rates were measured and inhibition constants were evaluated by fitting to equation of competitive inhibition (vi/vo=Km+[S]/(Km(1+I/Ki)+[S]) [I. H. Segel, Enzyme Kinetics (Wiley-Interscience Publication, 1993)], where vi is initial velocity in the presence of mAb, vo is the initial velocity in the absence of mAb inhibitor, S is substrate concentration Km is the Michaelis-Menten constant and I is mAb concentration.
(§4) The effect of SDS3 and SDS4 on MMPs' enzymatic activity was examined using to standard peptide hydrolysis assay based on conversion of fluorogenic peptide substrate [C. G. Knight, F. Willenbrock, G. Murphy, FEBS Lett 296, 263 (Jan. 27, 1992)] as well as native gelatin substrate. Initial reaction velocities were measured in the presence of several concentrations of metallobodies incubated with various MMPs and tumor necrosis factor-alpha converting enzyme (TACE).

[7] = molecular target: T3, active MMP-9 (as used in the enzymatic …); experiment: as above
Method: as §3, §4

[8] = molecular target: T6, Human Pro-MMP-9 (human, UniProt P14780 20-707); experiment: pull-down with SDS3 on protein A beads, SDS-PAGE, Coomassie staining
T6 construct: Zymogen with pro-domain; also called MMP-9 zymogen
Method: (§5) FIGS. 7A-B are photographs illustrating that SDS3 recognizes only the active conformation of MMP-2 and -9. FIG. 7A: Western blot analyses of MMP-9 using commercial anti-MMP-9 antibody. Lane 1—SDS3 captured from mice ascetic fluid by protein G beads; lane 2—As control non-related IgG similarly captured; lane 3—ProMMP-9, as a molecular weight marker to discern the active species. FIG. 7B: SDS3 mAb immobilized to protein A beads was analyzed for its ability to pull down purified ProMMP-9 (top), ProMMP-2 (middle) or active MMP-2 (bottom). Immunoprecipitates (lane 1) and unbound fraction (lane 2) were separated on SDS/PAGE gel, and visualized by Coomassie-staining. As a negative control for non-specific adsorption, enzyme alone was incubated with protein A Sepharose beads (lane 3).
(§6) After washing unbound antibody, purified enzyme ProMMP-9, Pro-MMP-2, or active MMP-2 fragment (catalytic and fibronectin domain), was added following 2 hour incubation under continuous stirring at room temperature. Bead-bound immune complex was collected by centrifugation and washed three times with PBS. Bound proteins were eluted with SDS sample buffer, fractionated by SDS-PAGE, and detected by Coomassie blue staining. As negative control for non specific adsorption enzyme was incubated with protein A Sepharose beads.

[9] = molecular target: T1, Human pro-MMP-2; experiment: as above
Method: as §5, §6

[10] = molecular target: T2, mouse MMP-9 catalytic domain; experiment: ELISA, biotinylated mouse catalytic MMP-9 on streptavidin plate, soluble antibody
Method: ELISA Binding Assay: Biotinylated mouse catalytic MMP-9 was coupled to streptavidin coated microtiter plate (Nunc) according to manufacture protocol. After the plates were coated, they were incubated with the SDS3/4 mAb for 2 hours at room temperature. The plates were washed, and bound Ab was detected with peroxidase-labeled goat anti-mouse IgG (Jackson) according to standard procedures. EC₅₀, or concentration of half-maximal binding was calculated from a four-parametric sigmoidal-curve fitting analysis.

[11] = molecular target: T5, MMP-9 catalytic fibronectin fragment; experiment: SPR (BIAcore 3000), biotin-labeled MMP-9 on SA chip, antibody in flow; KD=kd/ka
Description: as §1
as §2, with “All measurements were carried out at 25° C. and with a flow rate of 20 μl/min for both the association and dissociation phases in TBS buffer (50 mM Tris, 100 mM NaCl, 5 mM CaCl₂, pH 7.5).” left out

[12] = molecular target: T7, human MT1-MMP catalytic domain (human, UniProt P50281 114-290); experiment: cell-based or functional assay
[13] = molecular target: T7, human MT1-MMP catalytic domain; experiment: enzyme kinetics, fluorogenic peptide hydrolysis, fit to competitive inhibition
Method: as §3, §4

Sequence of MMP-2 (as used in the enzymatic kinetic assay) (P33434 110-467): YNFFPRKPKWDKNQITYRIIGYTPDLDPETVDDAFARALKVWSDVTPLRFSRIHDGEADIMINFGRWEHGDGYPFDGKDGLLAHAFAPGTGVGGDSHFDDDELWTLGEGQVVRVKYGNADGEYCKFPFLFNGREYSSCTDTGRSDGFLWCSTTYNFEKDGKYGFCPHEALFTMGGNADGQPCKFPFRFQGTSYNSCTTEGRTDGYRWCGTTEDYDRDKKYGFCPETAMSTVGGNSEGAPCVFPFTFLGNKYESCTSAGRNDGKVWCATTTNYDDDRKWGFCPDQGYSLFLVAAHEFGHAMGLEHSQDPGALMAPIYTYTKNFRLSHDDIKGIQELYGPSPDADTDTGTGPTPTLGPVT
T4 sequence (P02769 25-607 limits assumed): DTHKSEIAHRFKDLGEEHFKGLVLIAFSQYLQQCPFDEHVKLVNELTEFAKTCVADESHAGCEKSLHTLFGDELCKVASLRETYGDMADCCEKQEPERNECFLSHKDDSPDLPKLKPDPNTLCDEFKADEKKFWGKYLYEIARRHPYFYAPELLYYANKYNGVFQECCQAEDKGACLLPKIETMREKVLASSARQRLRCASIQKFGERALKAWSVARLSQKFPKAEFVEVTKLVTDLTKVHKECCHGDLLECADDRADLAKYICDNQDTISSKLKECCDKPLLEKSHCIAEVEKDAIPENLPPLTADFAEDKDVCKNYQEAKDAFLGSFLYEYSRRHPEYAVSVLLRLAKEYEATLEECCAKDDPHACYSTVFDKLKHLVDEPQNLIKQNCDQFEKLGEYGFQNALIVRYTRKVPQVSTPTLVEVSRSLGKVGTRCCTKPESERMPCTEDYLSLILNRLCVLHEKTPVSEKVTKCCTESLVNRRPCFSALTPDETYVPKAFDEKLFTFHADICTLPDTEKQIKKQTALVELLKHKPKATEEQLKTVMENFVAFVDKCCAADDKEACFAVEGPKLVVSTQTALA
T6 sequence (P14780 20-707): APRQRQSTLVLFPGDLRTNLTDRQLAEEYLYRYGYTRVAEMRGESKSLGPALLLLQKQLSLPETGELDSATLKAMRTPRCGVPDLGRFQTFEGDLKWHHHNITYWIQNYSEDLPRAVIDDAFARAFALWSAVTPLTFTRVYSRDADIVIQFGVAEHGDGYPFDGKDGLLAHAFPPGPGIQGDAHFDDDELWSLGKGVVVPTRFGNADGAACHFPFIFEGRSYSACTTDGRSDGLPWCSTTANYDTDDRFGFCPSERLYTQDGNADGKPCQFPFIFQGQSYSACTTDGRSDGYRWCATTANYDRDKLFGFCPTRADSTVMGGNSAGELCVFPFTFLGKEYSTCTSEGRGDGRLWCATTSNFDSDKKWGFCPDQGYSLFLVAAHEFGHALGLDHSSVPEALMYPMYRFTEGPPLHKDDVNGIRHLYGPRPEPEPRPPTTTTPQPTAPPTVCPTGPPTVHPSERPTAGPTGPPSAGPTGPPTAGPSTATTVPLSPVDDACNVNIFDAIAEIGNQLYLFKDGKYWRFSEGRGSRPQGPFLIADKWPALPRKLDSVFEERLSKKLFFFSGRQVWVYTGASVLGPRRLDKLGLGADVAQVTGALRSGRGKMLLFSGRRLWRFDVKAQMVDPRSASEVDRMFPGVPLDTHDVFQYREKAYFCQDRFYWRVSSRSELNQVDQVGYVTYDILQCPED

IC50 of inhibition of enzymatic activity (fluorogenic peptide hydrolysis) [1]	IC50 of inhibition of enzymatic activity (fluorogenic peptide hydrolysis) [2]	IC50 (read off the curve) [3]	binding result [4]	koff [5]	kon [5]	Ki [6]	Ki [7]	binding result [8]	binding result [9]	EC50 [10]	Kd [11]	IC50 of inhibition of enzymatic activity (fluorogenic peptide hydrolysis) [12]	Ki [13]	Binder
1400 nM	1000 nM	~3000 nM	no binding	0.00135 s⁻¹	6640 M⁻¹ s⁻¹	1000 nM	1000 nM	no binding	no binding	200 nM	200 nM	–	–	SDS3 (antibody, V domains shown, Mouse hybridoma monoclonal antibody raised against Zn-Tripod-KLH; also called SDS3 mAb; SDS3 metallobody) VH: VQLQESGGGLVKPGGSLKLSCAASGFAFSTYDMSWIRQTPEKRLEWVATISSGGSYTYYPDSVKGRFTISKDNARNTLYLQMSSLRSGDTALYYCTRFRYDGWYFDVWGQG VL: DVLITQTPLSLPVSLGDQASISCRSSQSIVHSNGNTFLEWYLQKPGQSPKLLIYKVSNRFSGVPDRFSGSGSGTDFTLKISRVEAEDLGVYYCFQASHVPPTFGGG
56 nM	70 nM	–	–	0.00166 s⁻¹	439000 M⁻¹ s⁻¹	54 nM	54 nM	–	–	15 nM	3.78 nM	1420 nM	1400 nM	SDS4 (antibody, V domains shown, Mouse hybridoma monoclonal antibody raised against Zn-Tripod-KLH; also called SDS4 mAb; SDS4 metallobody) VH: EVQLQQSGPELVKPGASVKISCKASGYTFTGYYMHWVKQSPEKSLEWIGEINPSTGGTTYNQKFTGKATLTVDKSSSTAYMQLKSLTSDDSAVYYCASYYRYDWFAYWGQGTLVTVSA VL: DVLMTQTPLSLPVSLGDQASISCRSSQSLVHSNGNTYLHWYLQKPGQSPKLLIYKVSNRFSGVPDRFSGSGSGTDFTLKISRVEAEDLGVYFCSQSTHVPFTFGSGTKLELKR
